Test results published in patent US20060280804A1 (CONSEJO SUPERIOR DE INVESTIGACIONES CIENTIFCAS, published 2006).

T1: angiotensin converting enzyme (ACE, EC 3.4.15.1, Sigma)
T1 sequence (P12822 whole entry, species assumed, looked up): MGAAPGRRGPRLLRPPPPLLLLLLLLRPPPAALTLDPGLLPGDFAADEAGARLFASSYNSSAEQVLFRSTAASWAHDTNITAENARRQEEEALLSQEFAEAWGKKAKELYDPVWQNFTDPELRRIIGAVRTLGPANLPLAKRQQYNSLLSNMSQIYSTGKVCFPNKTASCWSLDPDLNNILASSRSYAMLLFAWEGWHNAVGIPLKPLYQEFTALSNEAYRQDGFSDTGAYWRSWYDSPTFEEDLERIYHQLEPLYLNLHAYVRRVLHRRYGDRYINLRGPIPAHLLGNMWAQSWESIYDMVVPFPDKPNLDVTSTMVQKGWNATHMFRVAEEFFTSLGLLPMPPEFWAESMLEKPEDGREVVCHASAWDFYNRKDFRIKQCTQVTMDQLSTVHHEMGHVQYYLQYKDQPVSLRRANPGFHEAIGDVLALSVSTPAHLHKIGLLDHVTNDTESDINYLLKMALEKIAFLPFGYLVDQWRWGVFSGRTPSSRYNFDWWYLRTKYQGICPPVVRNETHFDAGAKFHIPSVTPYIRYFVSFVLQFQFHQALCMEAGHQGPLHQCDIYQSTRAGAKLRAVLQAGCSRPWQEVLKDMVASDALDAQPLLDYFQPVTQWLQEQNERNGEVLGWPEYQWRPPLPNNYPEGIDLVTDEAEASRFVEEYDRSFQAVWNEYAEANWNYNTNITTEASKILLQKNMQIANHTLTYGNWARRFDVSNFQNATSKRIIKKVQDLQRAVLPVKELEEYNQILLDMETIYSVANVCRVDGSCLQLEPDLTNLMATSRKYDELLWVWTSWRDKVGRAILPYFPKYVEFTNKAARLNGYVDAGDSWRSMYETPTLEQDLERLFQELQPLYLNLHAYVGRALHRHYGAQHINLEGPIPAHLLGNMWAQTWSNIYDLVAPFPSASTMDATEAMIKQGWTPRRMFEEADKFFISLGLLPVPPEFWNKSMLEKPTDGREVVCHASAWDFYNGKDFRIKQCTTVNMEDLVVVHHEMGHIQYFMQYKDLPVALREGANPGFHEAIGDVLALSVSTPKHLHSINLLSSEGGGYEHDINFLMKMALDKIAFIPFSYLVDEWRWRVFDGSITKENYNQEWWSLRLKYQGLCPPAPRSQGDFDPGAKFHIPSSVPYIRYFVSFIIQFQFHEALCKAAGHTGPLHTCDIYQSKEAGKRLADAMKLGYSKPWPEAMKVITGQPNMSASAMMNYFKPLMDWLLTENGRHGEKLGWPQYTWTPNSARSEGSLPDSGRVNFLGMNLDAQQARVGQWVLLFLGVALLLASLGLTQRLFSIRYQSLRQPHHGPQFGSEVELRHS


The binders below were run against T1, angiotensin converting enzyme (ACE, EC …) (assay: cell-based or functional assay).

Row | Binder | ACEI activity, IC50
1 | RDILNQ [RDILNQ (SEQ. ID. No 7), synthetic peptide, ovalbumin 84-89] | 436 µM
2 | YAEERYPIL [YAEERYPIL (SEQ. ID. No 6), synthetic peptide, ovalbumin 106-114] | 4.7 µM
3 | ESIINF [ESIINF, synthetic peptide, ovalbumin 256-261] | > 1000 µM
4 | YRGGLEPINF [YRGGLEPINF, synthetic peptide, ovalbumin 125-134] | > 1000 µM
5 | VLLPDEVSGL [VLLPDEVSGL, synthetic peptide, ovalbumin 243-252] | > 1000 µM
6 | SALAM [SALAM (SEQ. ID. No 8), synthetic peptide, ovalbumin 36-40] | 229 µM
7 | ELIN [ELIN, synthetic peptide, ovalbumin 144-147] | > 1000 µM
8 | RADHPFL [RADHPFL (SEQ. ID. No 3), synthetic peptide, ovalbumin 359-365] | 6.2 µM
9 | YQIGL [YQIGL (SEQ. ID. No 1), synthetic peptide, ovalbumin 212-216] | 174 µM
